{
  "source": "patent US6051559",
  "molecular_target": "T1, dCREB2-a (Drosophila melanogaster) (UniProt Q9VWW0)",
  "T1 sequence": "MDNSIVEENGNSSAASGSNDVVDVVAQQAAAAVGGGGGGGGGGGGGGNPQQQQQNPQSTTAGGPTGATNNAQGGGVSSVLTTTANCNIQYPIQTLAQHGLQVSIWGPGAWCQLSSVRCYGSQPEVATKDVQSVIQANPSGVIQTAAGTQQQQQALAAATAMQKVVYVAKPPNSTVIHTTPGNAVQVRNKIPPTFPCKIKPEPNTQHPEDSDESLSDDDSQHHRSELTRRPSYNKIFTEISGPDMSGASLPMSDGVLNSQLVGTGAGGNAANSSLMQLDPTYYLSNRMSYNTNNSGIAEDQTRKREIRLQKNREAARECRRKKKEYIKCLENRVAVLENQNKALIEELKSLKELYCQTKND",
  "experiment": "cell_activity",
  "details": "F9 cells, with PKA versus PKA alone",
  "data": [
    {"substance": "D(-71) CAT reporter CRE fragment", "values": [
      {"measurement": "activity", "result": 5.4, "unit": "fold"}
    ]}
  ]
}
